Assay results reported in patent US20190218277A1 (Chugai, published 2019).

What was measured:
[1] = biological target: T1, Recombinant soluble E protein (0.8E-His) from DENV-2 (DENV-2, UniProt P14340 281-675); experiment: SPR, Biacore T200
T1 construct: also called DENV-2 E protein; DV2

[2] = biological target: T2, Recombinant soluble E protein (0.8E-His) from DENV-4 (DENV-4, UniProt P09866 280-674); experiment: SPR, Biacore T200
T2 construct: also called DENV-4 E protein; DV4

[3] = biological target: T3, Recombinant soluble E protein (0.8E-His) from DENV-3 (DENV-3, UniProt P27915 281-673)
T3 construct: also called DENV-3 E protein; DV3

[4] = biological target: T4, Recombinant soluble E protein (0.8E-His) from DENV-1 (DENV-1, UniProt P27909 281-675)
T4 construct: also called DENV-1 E protein; DV1

B1: DG_3CH1049-SG182/3CL668-SK1 (antibody, V domains shown)
VH: QVQLVQSGAEVKKPGASVKVSCKASGYTFTSYYMHWVRQAPGQGLEWMGVINPRGGSRRSAQKFQGRVTMTRDTSTSTVYMELSSLRSEDTAVYYCARGGEALFYDSYTTPFDGGSWWFDPWGQGSLVTVSS
VL: DIQLTQSPSSLSASVGDRVTITCQASQDIRKYLNWYQQKPGKAPKLLIYDASNLKTGVPSRFSGSGSGTDFTLTISSLQPEDVATYYCQQFEDLPITFGQGTRLQIKR
For B1, the binding result [1] was “binds”, the binding result [2] was “binds” and the Kd [3] was 0.00155 nM. It also gave a Kd [4] of 1.7 nM.

B2: DG_3CH1049-SG182/3CL633-SK1 (antibody, V domains shown)
VH: QVQLVQSGAEVKKPGASVKVSCKASGYTFTSYYMHWVRQAPGQGLEWMGVINPRGGSRRSAQKFQGRVTMTRDTSTSTVYMELSSLRSEDTAVYYCARGGEALFYDSYTTPFDGGSWWFDPWGQGSLVTVSS
VL: DIQLTQSPSSLSASVGDRVTITCQASQDIRKYLNWYQQKPGKAPKLLIYDASNLKTGVPSRFSGSGSGTDFTLTISSLQPEDVATYYCQQFDDLPITFGQGTRLQIKR
For B2, the binding result [1] was “binds”, the binding result [2] was “binds” and the Kd [3] was 0.0041 nM. It also gave a Kd [4] of 1.73 nM.

B3: DG_3CH1046-SG182/3CL666-SK1 (antibody, V domains shown)
VH: QVQLVQSGAEVKKPGASVKVSCKASGYTFTSYYMHWVRQAPGQGLEWMGVINPRGGSRRSAQKFQGRVTMTRDTSTSTVYMELSSLRSEDTAVYYCARGGRALFYDSYTTPFDGGSWWFDPWGQGSLVTVSS
VL: DIQLTQSPSSLSASVGDRVTITCQASQEIRKYLNWYQQKPGKAPKLLIYDASNLKTGVPSRFSGSGSGTDFTLTISSLQPEDVATYYCQQFDDLPITFGQGTRLQIKR
In the case of B3, the binding result [1] is reported as “binds”, the binding result [2] is reported as “binds” and the Kd [3] is reported as 0.00047 nM. The Kd [4] was 1.52 nM.

B4: DG_3CH1046-SG182/3CL668-SK1 (antibody, V domains shown)
VH: QVQLVQSGAEVKKPGASVKVSCKASGYTFTSYYMHWVRQAPGQGLEWMGVINPRGGSRRSAQKFQGRVTMTRDTSTSTVYMELSSLRSEDTAVYYCARGGRALFYDSYTTPFDGGSWWFDPWGQGSLVTVSS
VL: DIQLTQSPSSLSASVGDRVTITCQASQDIRKYLNWYQQKPGKAPKLLIYDASNLKTGVPSRFSGSGSGTDFTLTISSLQPEDVATYYCQQFEDLPITFGQGTRLQIKR
In the case of B4, the binding result [1] is reported as “binds”, the binding result [2] is reported as “binds” and the Kd [3] is reported as 0.000559 nM. For the same binder, the Kd [4] was 1.56 nM.

B5: DG_3CH1049-SG182/3CL666-SK1 (antibody, V domains shown)
VH: QVQLVQSGAEVKKPGASVKVSCKASGYTFTSYYMHWVRQAPGQGLEWMGVINPRGGSRRSAQKFQGRVTMTRDTSTSTVYMELSSLRSEDTAVYYCARGGEALFYDSYTTPFDGGSWWFDPWGQGSLVTVSS
VL: DIQLTQSPSSLSASVGDRVTITCQASQEIRKYLNWYQQKPGKAPKLLIYDASNLKTGVPSRFSGSGSGTDFTLTISSLQPEDVATYYCQQFDDLPITFGQGTRLQIKR
In the case of B5, the binding result [1] is reported as “binds”, the binding result [2] is reported as “binds” and the Kd [3] is reported as 0.00295 nM. It also gave a Kd [4] of 1.72 nM.

B6: DG_3CH1000-SG1106/3CL012-SK1 (antibody)
heavy: QVQLVQSGPDVEKPGASVKVSCKASGYTFTSYYMHWVRQAPGQGLEWMGVINPRGGSRRSAQKFQGRITMTRDTSTSTVYMELSSLRSEDTAVYYCARGGRALFYDSYTTPFDGGSWWFDPWGQGSLVTVSSASTKGPSVFPLAPSSKSTSGGTAALGCLVKDYFPEPVTVSWNSGALTSGVHTFPAVLQSSGLYSLSSVVTVPSSSLGTQTYICNVNHKPSNTKVDKRVEPKSCDKTHTCPPCPAPEAAGGPSVFLFPPKPKDTLMISRTPEVTCVVVDVSHEDPEVKFNWYVDGVEVHNAKTKPREEQYNSTYRVVSVLTVLHQDWLNGKEYKCKVSNAALPAPISKTISKAKGQPREPQVYTLPPSREEMTKNQVSLTCLVKGFYPSDIAVEWESNGQPENNYKTTPPVLDSDGSFFLYSKLTVDKSRWQQGNVFSCSVLHEALHAHYTRKELSLSP
light: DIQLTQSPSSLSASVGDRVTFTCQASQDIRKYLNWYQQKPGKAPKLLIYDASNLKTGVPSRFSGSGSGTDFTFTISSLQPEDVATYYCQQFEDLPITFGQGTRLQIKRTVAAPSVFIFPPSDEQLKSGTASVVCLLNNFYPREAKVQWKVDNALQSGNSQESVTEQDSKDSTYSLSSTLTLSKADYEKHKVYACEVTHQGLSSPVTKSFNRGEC
In the case of B6, the binding result [1] is reported as “binds”, the binding result [2] is reported as “binds” and the Kd [3] is reported as 0.000101 nM. The Kd [4] was 1.91 nM.

B7: DG_3CH953-SG1106/3CL012-SK1 (antibody)
heavy: QVQLVQSGPDVEKPGASVKVSCKASGYTFTSNYIHWVRQAPGQGLEWMGVINPRGGSRRSAQKFQGRITMTRDTSTSTVYMELSSLRSEDTAVYYCARGGRALFYDSYTTPFDGGSWWFDPWGQGSLVTVSSASTKGPSVFPLAPSSKSTSGGTAALGCLVKDYFPEPVTVSWNSGALTSGVHTFPAVLQSSGLYSLSSVVTVPSSSLGTQTYICNVNHKPSNTKVDKRVEPKSCDKTHTCPPCPAPEAAGGPSVFLFPPKPKDTLMISRTPEVTCVVVDVSHEDPEVKFNWYVDGVEVHNAKTKPREEQYNSTYRVVSVLTVLHQDWLNGKEYKCKVSNAALPAPISKTISKAKGQPREPQVYTLPPSREEMTKNQVSLTCLVKGFYPSDIAVEWESNGQPENNYKTTPPVLDSDGSFFLYSKLTVDKSRWQQGNVFSCSVLHEALHAHYTRKELSLSP
light: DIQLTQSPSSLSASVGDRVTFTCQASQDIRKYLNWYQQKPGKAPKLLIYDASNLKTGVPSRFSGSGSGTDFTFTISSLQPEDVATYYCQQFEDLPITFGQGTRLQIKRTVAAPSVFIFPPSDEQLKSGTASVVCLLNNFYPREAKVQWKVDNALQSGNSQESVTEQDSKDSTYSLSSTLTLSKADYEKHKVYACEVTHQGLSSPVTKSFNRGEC
With B7 the binding result [1] was “binds”, the binding result [2] was “binds” and the Kd [3] was 0.0106 nM. It also gave a Kd [4] of 1.89 nM.

B8: DG_3CH953-SG1106/3CL119-SK1 (antibody)
heavy: QVQLVQSGPDVEKPGASVKVSCKASGYTFTSNYIHWVRQAPGQGLEWMGVINPRGGSRRSAQKFQGRITMTRDTSTSTVYMELSSLRSEDTAVYYCARGGRALFYDSYTTPFDGGSWWFDPWGQGSLVTVSSASTKGPSVFPLAPSSKSTSGGTAALGCLVKDYFPEPVTVSWNSGALTSGVHTFPAVLQSSGLYSLSSVVTVPSSSLGTQTYICNVNHKPSNTKVDKRVEPKSCDKTHTCPPCPAPEAAGGPSVFLFPPKPKDTLMISRTPEVTCVVVDVSHEDPEVKFNWYVDGVEVHNAKTKPREEQYNSTYRVVSVLTVLHQDWLNGKEYKCKVSNAALPAPISKTISKAKGQPREPQVYTLPPSREEMTKNQVSLTCLVKGFYPSDIAVEWESNGQPENNYKTTPPVLDSDGSFFLYSKLTVDKSRWQQGNVFSCSVLHEALHAHYTRKELSLSP
light: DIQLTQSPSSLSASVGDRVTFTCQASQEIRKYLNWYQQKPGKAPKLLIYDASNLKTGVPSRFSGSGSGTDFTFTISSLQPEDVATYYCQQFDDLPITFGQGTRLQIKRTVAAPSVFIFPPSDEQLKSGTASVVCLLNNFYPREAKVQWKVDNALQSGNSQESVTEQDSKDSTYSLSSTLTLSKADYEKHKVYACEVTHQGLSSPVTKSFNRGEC
B8 was tested, and the binding result [1] was “binds”, the binding result [2] was “binds” and the Kd [3] was 0.00217 nM. For the same binder, the Kd [4] was 1.96 nM.

B9: DG_3CH1047-SG1106/3CL012-SK1 (antibody)
heavy: QVQLVQSGPDVEKPGASVKVSCKASGYTFTSYYMHWVRQAPGQGLEWMGVINPRGGSRRSAQKFQGRITMTRDTSTSTVYMELSSLRSEDTAVYYCARGGEALFYDSYTTPFDGGSWWFDPWGQGSLVTVSSASTKGPSVFPLAPSSKSTSGGTAALGCLVKDYFPEPVTVSWNSGALTSGVHTFPAVLQSSGLYSLSSVVTVPSSSLGTQTYICNVNHKPSNTKVDKRVEPKSCDKTHTCPPCPAPEAAGGPSVFLFPPKPKDTLMISRTPEVTCVVVDVSHEDPEVKFNWYVDGVEVHNAKTKPREEQYNSTYRVVSVLTVLHQDWLNGKEYKCKVSNAALPAPISKTISKAKGQPREPQVYTLPPSREEMTKNQVSLTCLVKGFYPSDIAVEWESNGQPENNYKTTPPVLDSDGSFFLYSKLTVDKSRWQQGNVFSCSVLHEALHAHYTRKELSLSP
light: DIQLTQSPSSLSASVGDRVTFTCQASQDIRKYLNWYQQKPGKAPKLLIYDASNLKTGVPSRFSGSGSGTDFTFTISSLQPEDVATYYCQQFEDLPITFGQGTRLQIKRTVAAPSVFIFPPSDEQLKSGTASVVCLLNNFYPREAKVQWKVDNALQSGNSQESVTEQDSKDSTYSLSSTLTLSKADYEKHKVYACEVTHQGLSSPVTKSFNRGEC
For B9, the binding result [1] was “binds”, the binding result [2] was “binds” and the Kd [3] was 0.00236 nM. It also gave a Kd [4] of 2.18 nM.

B10: DG_3CH1047-SG1106/3CL119-SK1 (antibody)
heavy: QVQLVQSGPDVEKPGASVKVSCKASGYTFTSYYMHWVRQAPGQGLEWMGVINPRGGSRRSAQKFQGRITMTRDTSTSTVYMELSSLRSEDTAVYYCARGGEALFYDSYTTPFDGGSWWFDPWGQGSLVTVSSASTKGPSVFPLAPSSKSTSGGTAALGCLVKDYFPEPVTVSWNSGALTSGVHTFPAVLQSSGLYSLSSVVTVPSSSLGTQTYICNVNHKPSNTKVDKRVEPKSCDKTHTCPPCPAPEAAGGPSVFLFPPKPKDTLMISRTPEVTCVVVDVSHEDPEVKFNWYVDGVEVHNAKTKPREEQYNSTYRVVSVLTVLHQDWLNGKEYKCKVSNAALPAPISKTISKAKGQPREPQVYTLPPSREEMTKNQVSLTCLVKGFYPSDIAVEWESNGQPENNYKTTPPVLDSDGSFFLYSKLTVDKSRWQQGNVFSCSVLHEALHAHYTRKELSLSP
light: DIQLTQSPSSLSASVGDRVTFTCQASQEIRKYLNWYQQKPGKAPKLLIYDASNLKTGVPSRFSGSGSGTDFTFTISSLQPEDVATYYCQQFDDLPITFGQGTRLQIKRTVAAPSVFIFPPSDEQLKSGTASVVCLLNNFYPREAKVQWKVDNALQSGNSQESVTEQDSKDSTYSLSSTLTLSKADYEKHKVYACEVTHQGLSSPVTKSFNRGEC
B10 was tested, and the binding result [1] was “binds”, the binding result [2] was “binds” and the Kd [3] was 0.00436 nM. For the same binder, the Kd [4] was 2.29 nM.

B11: DG_3CH1000-SG1106/3CL119-SK1 (antibody)
heavy: QVQLVQSGPDVEKPGASVKVSCKASGYTFTSYYMHWVRQAPGQGLEWMGVINPRGGSRRSAQKFQGRITMTRDTSTSTVYMELSSLRSEDTAVYYCARGGRALFYDSYTTPFDGGSWWFDPWGQGSLVTVSSASTKGPSVFPLAPSSKSTSGGTAALGCLVKDYFPEPVTVSWNSGALTSGVHTFPAVLQSSGLYSLSSVVTVPSSSLGTQTYICNVNHKPSNTKVDKRVEPKSCDKTHTCPPCPAPEAAGGPSVFLFPPKPKDTLMISRTPEVTCVVVDVSHEDPEVKFNWYVDGVEVHNAKTKPREEQYNSTYRVVSVLTVLHQDWLNGKEYKCKVSNAALPAPISKTISKAKGQPREPQVYTLPPSREEMTKNQVSLTCLVKGFYPSDIAVEWESNGQPENNYKTTPPVLDSDGSFFLYSKLTVDKSRWQQGNVFSCSVLHEALHAHYTRKELSLSP
light: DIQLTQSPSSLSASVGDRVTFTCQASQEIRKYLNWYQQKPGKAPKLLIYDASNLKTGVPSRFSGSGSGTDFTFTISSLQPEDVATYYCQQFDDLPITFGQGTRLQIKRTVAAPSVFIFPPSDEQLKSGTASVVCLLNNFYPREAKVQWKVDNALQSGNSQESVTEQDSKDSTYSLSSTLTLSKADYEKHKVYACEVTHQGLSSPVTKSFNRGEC
B11 was tested, and the binding result [1] was “binds”, the binding result [2] was “binds” and the Kd [3] was 0.00182 nM. The Kd [4] was 1.91 nM.

B12: DG_3CH1000-SG1106/3CL-SK1 (antibody)
heavy: QVQLVQSGPDVEKPGASVKVSCKASGYTFTSYYMHWVRQAPGQGLEWMGVINPRGGSRRSAQKFQGRITMTRDTSTSTVYMELSSLRSEDTAVYYCARGGRALFYDSYTTPFDGGSWWFDPWGQGSLVTVSSASTKGPSVFPLAPSSKSTSGGTAALGCLVKDYFPEPVTVSWNSGALTSGVHTFPAVLQSSGLYSLSSVVTVPSSSLGTQTYICNVNHKPSNTKVDKRVEPKSCDKTHTCPPCPAPEAAGGPSVFLFPPKPKDTLMISRTPEVTCVVVDVSHEDPEVKFNWYVDGVEVHNAKTKPREEQYNSTYRVVSVLTVLHQDWLNGKEYKCKVSNAALPAPISKTISKAKGQPREPQVYTLPPSREEMTKNQVSLTCLVKGFYPSDIAVEWESNGQPENNYKTTPPVLDSDGSFFLYSKLTVDKSRWQQGNVFSCSVLHEALHAHYTRKELSLSP
light: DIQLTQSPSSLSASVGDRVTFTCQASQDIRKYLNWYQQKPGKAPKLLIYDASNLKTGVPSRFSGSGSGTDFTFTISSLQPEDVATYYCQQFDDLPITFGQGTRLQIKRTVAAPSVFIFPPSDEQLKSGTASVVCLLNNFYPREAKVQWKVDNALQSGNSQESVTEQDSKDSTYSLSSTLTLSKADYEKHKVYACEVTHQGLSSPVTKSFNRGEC
In the case of B12, the binding result [1] is reported as “binds”, the binding result [2] is reported as “binds” and the Kd [3] is reported as 0.000299 nM. It also gave a Kd [4] of 1.84 nM.
